Substitutions are numbered along the chain they refer to. Names and notes keep the numbering of the source.
B1: human FGL1-His antigen (ACRO, FG1-H52Hy) (ligand, UniProt Q08830 23-312, looked up)
chain: LEDCAQEQMRLRAQVRLLETRVKQQQVKIKQLLQENEVQFLDKGDENTVIDLGSKRQYADCSEIFNDGYKLSGFYKIKPLQSPAEFSVYCDMSDGGGWTVIQRRSDGSENFNRGWKDYENGFGNFVQKHGEYWLGNKNLHFLTTQEDYTLKIDLADFEKNSRYAQYKNFKVGDEKNFYELNIGEYSGTAGDSLAGNFHPEVQWWASHQRMKFSTWDRDHDNYEGNCAEEDQSGWWFNRCHSANLNGVYYSGPYTAKTDNGIVWYTWHGWWYSLKSVVMKIRPNDFIPNVI
notes: Bought His-tagged protein; also called hFGL1; hFGL1 antigen
B2: LAG-3 D1-D2-LZ wild type W1161-LZ (other)
chain 1: LQPGAEVPVVWAQEGAPAQLPCSPTIPLQDLSLLRRAGVTWQHQPDSGPPAAAPGHPLAPGPHPAAPSSWGPRPRRYTVLSVGPGGLRSGRLPLQPRVQLDERGRQRGDFSLWLRPARRADAGEYRAAVHLRDRALSCRLRLRLGQASMTASPPGSLRASDWVILNCSFSRPDRPASVHWFRNRGQGRVPVRESPHHHLAESFLFLPQVSPMDSGPWGCILTYRDGFNVSIMYNLTVLGGGGGSGGGGSEPKSSDKTHTCPPCPRIARLEEKVKTLKAQNSELASTANMLREQVAQLKQKVMNHHHHHH
chain 2: LQPGAEVPVVWAQEGAPAQLPCSPTIPLQDLSLLRRAGVTWQHQPDSGPPAAAPGHPLAPGPHPAAPSSWGPRPRRYTVLSVGPGGLRSGRLPLQPRVQLDERGRQRGDFSLWLRPARRADAGEYRAAVHLRDRALSCRLRLRLGQASMTASPPGSLRASDWVILNCSFSRPDRPASVHWFRNRGQGRVPVRESPHHHLAESFLFLPQVSPMDSGPWGCILTYRDGFNVSIMYNLTVLGGGGGSGGGGSEPKSSDKTHTCPPCPLTDTLQAETDQLEDEKSALQTEIANLLKEKEKLEFILAAHHHHHH
notes: Leucine zipper dimer of D1-D2-Linker2-c-JUN-His and D1-D2-Linker2-c-FOS-His
B3: LAG-3 D1-D2-LZ mutant WS451-LZ (E201G) (other)
chain 1: B2 chain 1 with E201G
chain 2: B2 chain 2 with E201G
notes: Leucine zipper dimer; D2 entry already carries E201G; copies: 1 + 1
B4: LAG-3 D1-D2-LZ mutant WS323-LZ (N183A) (other)
chain 1: B2 chain 1 with N183A
chain 2: B2 chain 2 with N183A
notes: Leucine zipper dimer; D2 entry already carries N183A; copies: 1 + 1
B5: LAG-3 D1-D2-LZ mutant WS447-LZ (E201D) (other)
chain 1: B2 chain 1 with E201D
chain 2: B2 chain 2 with E201D
notes: Leucine zipper dimer; D2 entry already carries E201D; copies: 1 + 1
B6: LAG-3 D1-D2-LZ mutant WS331-LZ (P195A) (other)
chain 1: B2 chain 1 with P195A
chain 2: B2 chain 2 with P195A
notes: Leucine zipper dimer; D2 entry already carries P195A; copies: 1 + 1

How the values were obtained:
[1] = biological target: T1, LAG-3 D1-D2-D3-Fc mutant E201G (UniProt P18627 23-352); assay: procedures of Examples 2-4 repeated; method not told here
T1 construct: domain: D1-D2-D3; also called LAG-3 D1-D2-D3-Linker-Fc E201G

[2] = biological target: T2, LAG-3 D1-D2-D3-Fc mutant P207I (UniProt P18627 23-352); assay: as above
T2 construct: domain: D1-D2-D3; also called LAG-3 D1-D2-D3-Linker-Fc P207I

[3] = biological target: T3, LAG-3 D1-D2-D3-Fc mutant M212A (UniProt P18627 23-352); assay: as above
T3 construct: domain: D1-D2-D3; also called LAG-3 D1-D2-D3-Linker-Fc M212A

[4] = biological target: T4, LAG-3 D1-D2-D3-Fc mutant E201D (UniProt P18627 23-352); assay: as above
T4 construct: domain: D1-D2-D3; also called LAG-3 D1-D2-D3-Linker-Fc E201D

[5] = biological target: T5, Y103-7A (LAG3 D1-D2-Fab, anti-PD-L1 Fab) (human); assay: Biacore SPR, antigen amine-coupled on CM5 chip, 1:1 fit
T5 construct: Dimer of LAG-3-Linker3-VL-CL and LAG-3-Linker3-VH-CH1; the Fab is specific for PD-L1

[6] = biological target: T6, Y103-4A (LAG3 D1-D2-D3-D4-Fab, anti-PD-L1 Fab) (human); assay: as above
T6 construct: Dimer of LAG-3-Linker3-VL-CL and LAG-3-Linker3-VH-CH1; the Fab is specific for PD-L1

[7] = biological target: B1; assay: ELISA, same method as in Example 3: construct coated, serially diluted human FGL1 added, OD450

B1: binds [1]; binds [2]; binds [3]. For the same binder, the binding result [4] was “binds”, the Kd [5] was 2.46 nM and the Kd [6] was 0.929 nM.

B2: binds [7].

B3: binds [7].

B4: binds [7].

B5: binds [7].

B6: binds [7].

From US20240247043A1 (WUHAN YZY BIOPHARMA, published 2024)
